We go through two molecules from patent publication US20250154281A1 (Amgen, published 2025).

Substitutions are numbered along the chain they refer to. Names may count otherwise.

Broadly, the EC50 is the midpoint of the concentration-response curve. In general, Kd refers to a measure of binding affinity in units of concentration.

The target in experiment [1] is T1, human STEAP1 (Six Trans-membrane Epithelial Antigen of the Prostate 1) (human, UniProt Q9UHE8 1-339). The experiment is described as follows: flow cytometry on C4-2B-Luc cells, APC anti-human IgG, MFI. How it is done:
(§1) C4-2B-Luc cells were incubated with increasing concentrations of Ab-A1 XmAb²⁺¹, Ab-A1 Xmab, Ab-B1 Xmab, Ab-Mx1, Ab-Mx2 and Ab-Mx3 up to […], for 1 hour at 4° C. Cell-bound antibodies were detected by flow cytometry after incubation with an APC-conjugated anti-human IgG secondary antibody and mean fluorescence intensity (MFI) of the APC channel at increasing concentrations of respective antibodies tested.
Background: Flow cytometry measures light scatter and fluorescence of single cells or particles in a stream.

Experiment [2] deals with T1, human STEAP1 (Six Trans-membrane …). The experiment is described as follows: flow cytometry on C4-2B-Luc cells. Here is the method: as §1
Experiment [3] has the same target. The experiment is described as follows: flow cytometry on C4-2B luc cells, MFI (repeat experiment). Here is the method: The experiment was repeated with Ab-A in various formats (Ab-A (traditional, monospecific antibody, not humanized), Ab-A1 XmAb format, Ab-A1 Xmab²⁺¹ format, and Ab-A2(N67Q) Xmab²⁺¹ format (with N67Q modification)) and Ab-B XmAb format. C4-2B-Luc cells were incubated with increasing concentrations of anti-STEAP1 XmAb or XmAb²⁺¹ molecules up to […], for one hour at 4° C. […] Results are shown in FIGS. 12A-12C and FIG. 13 and Table 4 below.

The target is the same in experiment [4]. Briefly: cell-based or functional assay.
For experiment [5] the target is unchanged. Briefly: cell-based or functional assay. The source holds these as a separate data set.
For experiment [6] the target is unchanged. Briefly: cell-based or functional assay. The source holds these as a separate data set.
For experiment [7], the target named is T2, recombinant cynomolgus CD3ε-Fc (cynomolgus, UniProt Q95LI5 22-117, limits assumed).
T2 construct: not shown: Fc part
T2 sequence (looked up): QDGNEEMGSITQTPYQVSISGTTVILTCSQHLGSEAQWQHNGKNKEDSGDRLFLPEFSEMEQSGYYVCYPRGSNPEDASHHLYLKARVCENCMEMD
Briefly: ^b data generated using Octet. In general terms: Biolayer interferometry detects binding as a change in optical thickness at a sensor tip.

The target in experiment [8] is T3, recombinant human CD3ε-Fc (human, UniProt P07766 23-126).
T3 construct: also called human CD3E-Fc; not shown: Fc part
Briefly: ^b data generated using Octet.

Experiment [9] addresses T2, recombinant cynomolgus CD3ε-Fc. Briefly: SPR, CD3ε-Fc immobilized on CM5 chip; ^a data generated using BIAcore. Here is the method:
(§2) Recombinant human CD3E-Fc and cynomolgus CD3ε-Fc were immobilized on a CM5 chip surface using standard amine coupling procedure at ˜60 RU. Ab-A2(N67Q) XmAb²⁺¹ was injected concentrations of 100, 33.3, 11.1 and 3.7 nM. The association and dissociation rates of Ab-A2(N67Q) XmAb²⁺¹ interaction to the ligands were recorded for 120 sec and 300 sec, respectively, as set forth below in Table 8. The equilibrium dissociation constant (KD) values were derived as a ratio of the dissociation rate constant and the association rate constant (koff/kₒₙ).

For experiment [10], the target named is T3, recombinant human CD3ε-Fc. Described as above. How it is done: as §2
In experiment [11] the target is T1, human STEAP1 (Six Trans-membrane …). Briefly: cell-based or functional assay. This is another data set of the same source.
For experiment [12] the target is unchanged. Briefly: cell-based or functional assay. This is another data set of the same source.

T1 sequence (Q9UHE8 whole entry): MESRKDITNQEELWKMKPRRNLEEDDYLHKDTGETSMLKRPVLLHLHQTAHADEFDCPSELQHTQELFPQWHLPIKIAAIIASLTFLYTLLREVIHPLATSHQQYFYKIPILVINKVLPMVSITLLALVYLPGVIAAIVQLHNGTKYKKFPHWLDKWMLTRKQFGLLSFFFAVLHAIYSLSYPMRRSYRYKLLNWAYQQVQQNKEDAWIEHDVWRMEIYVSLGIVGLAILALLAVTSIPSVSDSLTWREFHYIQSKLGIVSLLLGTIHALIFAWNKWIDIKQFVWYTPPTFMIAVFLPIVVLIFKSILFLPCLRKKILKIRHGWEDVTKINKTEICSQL
T3 sequence (P07766 23-126 limits assumed): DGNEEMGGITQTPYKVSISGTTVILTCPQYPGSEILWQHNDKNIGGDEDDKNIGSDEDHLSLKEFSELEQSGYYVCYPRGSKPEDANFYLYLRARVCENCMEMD

B1: Ab-A1 XmAb^2+1 (humanized anti-STEAP1/anti-CD3 heterodimeric antibody) (bispecific antibody)
heavy 1: QVQLVQSGAEVKKPGASVKVSCKASGYTFSTYWIEWVRQAPGQRLEWMGEILPGSGNTDFNEKFQGRVTFTADTSSDTAYMELSSLRSEDTAVYYCTRWGYYGTRGYFNVWGQGTLVTVSSASTKGPSVFPLAPSSKSTSGGTAALGCLVKDYFPEPVTVSWNSGALTSGVHTFPAVLQSSGLYSLSSVVTVPSSSLGTQTYICNVNHKPSNTKVDKKVEPKSCGGGGSGGGGSEVQLVESGGGLVQPGGSLRLSCAASGFTFSTYAMNWVRQAPGKGLEWVGRIRSKYNNYATYYADSVKGRFTISRDDSKNTLYLQMNSLRAEDTAVYYCVRHGNFGDSYVSWFAYWGQGTLVTVSSGKPGSGKPGSGKPGSGKPGSQAVVTQEPSLTVSPGGTVTLTCGSSTGAVTTSNYANWVQQKPGKSPRGLIGGTNKRAPGVPARFSGSLLGGKAALTISGAQPEDEADYYCALWYSNHWVFGGGTKLTVLGGGGSGGGGSKTHTCPPCPAPPVAGPSVFLFPPKPKDTLMISRTPEVTCVVVDVKHEDPEVKFNWYVDGVEVHNAKTKPREEQYNSTYRVVSVLTVLHQDWLNGKEYKCKVSNKALPAPIEKTISKAKGQPREPQVYTLPPSREQMTKNQVKLTCLVKGFYPSDIAVEWESNGQPENNYKTTPPVLDSDGSFFLYSKLTVDKSRWQQGNVFSCSVMHEALHNHYTQKSLSLSPGK
heavy 2: QVQLVQSGAEVKKPGASVKVSCKASGYTFSTYWIEWVRQAPGQRLEWMGEILPGSGNTDFNEKFQGRVTFTADTSSDTAYMELSSLRSEDTAVYYCTRWGYYGTRGYFNVWGQGTLVTVSSASTKGPSVFPLAPSSKSTSGGTAALGCLVKDYFPEPVTVSWNSGALTSGVHTFPAVLQSSGLYSLSSVVTVPSSSLGTQTYICNVNHKPSDTKVDKKVEPKSCDKTHTCPPCPAPPVAGPSVFLFPPKPKDTLMISRTPEVTCVVVDVKHEDPEVKFNWYVDGVEVHNAKTKPREEEYNSTYRVVSVLTVLHQDWLNGKEYKCKVSNKALPAPIEKTISKAKGQPREPQVYTLPPSREEMTKNQVSLTCDVSGFYPSDIAVEWESDGQPENNYKTTPPVLDSDGSFFLYSKLTVDKSRWEQGDVFSCSVMHEALHNHYTQKSLSLSPGK
light: EIVLTQSPATLSLSPGERATLSCRASSSVSYMHWFQQKPGQAPRLLIYSTSNLASGIPARFSGSGSGTDYTLTISSLEPEDFAVYYCQQRRSFPYTFGQGTKLEIKRTVAAPSVFIFPPSDEQLKSGTASVVCLLNNFYPREAKVQWKVDNALQSGNSQESVTEQDSKDSTYSLSSTLTLSKADYEKHKVYACEVTHQGLSSPVTKSFNRGEC
notes: XmAb^2+1 format: first monomer VH-CH1-(anti-CD3 scFv)-Fc, second monomer VH-CH1-Fc, common light chain; two STEAP1 Fabs and one CD3 scFv; monomers 19 or 20 / 18 or 199 / light 17; scFv 44; also called XmAb^2+1 Ab-A1; copies: 1 + 1 + 2
As to B1, the 50% effective concentration (EC50) in experiment [1] and in [3] was 2200 pM each time. In experiment [2], the “fold lower binding EC50 than Ab-A1 Xmab” value amounted to 65 fold. Further, the “TDCC EC50” value in experiment [4] stood at 6 pM. In addition, the “TDCC EC50, C4-2B luc cells” value in experiment [5] turned out to be 6.3 pM.

B2: Ab-A2(N67Q) XmAb^2+1 (variant of Ab-A1 XmAb^2+1 having a N67Q modification) (bispecific antibody)
heavy 1: B1 heavy 1 with N57Q, R568C, N573G, V578C
heavy 2: B1 heavy 2 with N57Q, R295C, N300G, V305C
light: B1 light
notes: XmAb^2+1 format (two STEAP1 Fabs, one anti-CD3 scFv); monomers 19 or 20 / 18 or 199 / light 17; scFv 44; also called Ab-A2 XmAb^2+1; copies: 1 + 1 + 2
As to B2, the “TDCC EC50, 293T cells stably transfected with human STEAP1” value in [6] was 0.1 pM. The equilibrium dissociation constant (Kd) in experiment [7] was determined as 25800 pM. The dissociation constant (Kd) in experiment [8] stood at 27600 pM. The equilibrium dissociation constant (Kd) in experiment [9] worked out at 15100 pM. In addition, in [10], the equilibrium dissociation constant (Kd) is 16300 pM. In addition, in experiment [11], the “TDCC EC50, 22RV-1 cells” value turned out to be 257 pM; the “TDCC EC50, C4-2B cells” value was 6.8 pM; the “TDCC EC50, HBSMC cells” value came to 1520 pM; the “TDCC EC50, HCT116 cells” value came to 336 pM. In addition, in experiment [11], the “TDCC EC50, HUCCT1 cells” value was greater than 10000 pM; the “TDCC EC50, IM-95 cells” value turned out to be 345 pM; the “TDCC EC50, LOX-IMVI cells” value is 36.6 pM; the “TDCC EC50, NCIH1869 cells” value is greater than 10000 pM. Moreover, in experiment [11], the “TDCC EC50, PC3 cells” value is greater than 10000 pM; the “TDCC EC50, SK-N-MC cells” value worked out at 10.4 pM; the “TDCC EC50, SNU5 cells” value came out at 6.2 pM; the “TDCC EC50, TYKNU cells” value came to 1720 pM. The “TDCC EC50, VCaP cells” value in [11] was determined as 722 pM. Besides, in experiment [12], the “TDCC EC50, A673 cells” value is 122 pM; the “TDCC EC50, EBC1 cells” value was 162 pM; the “TDCC EC50, OE33 cells” value came to 145 pM. For the same molecule, the midpoint of the response in experiment [3], the EC50, lay at 1200 pM. For the same molecule, the “TDCC EC50, C4-2B luc cells” value in experiment [5] stood at 5.4 pM.
